Broadly, the Kd is the constant that tells how readily two partners part at equilibrium. Lower therefore signals a tighter complex. One may read the stoichiometry N as the number of molecules, sites or subunits per partner or assembly.

Data set [1] concerns the target T1, CPS-6 H148A/P207E (Caenorhabditis elegans, UniProt Q95NM6 63-305, H148A;P207E).
T1 sequence: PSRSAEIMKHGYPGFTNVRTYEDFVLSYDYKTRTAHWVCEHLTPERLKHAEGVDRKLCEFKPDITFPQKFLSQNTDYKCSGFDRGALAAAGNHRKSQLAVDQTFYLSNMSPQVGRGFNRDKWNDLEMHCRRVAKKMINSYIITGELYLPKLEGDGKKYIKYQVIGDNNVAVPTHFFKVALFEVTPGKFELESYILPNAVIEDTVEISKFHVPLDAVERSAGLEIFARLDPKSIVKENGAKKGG
The experiment in a line: filter binding.

Data set [2] addresses T2, CPS-6 H148A (Caenorhabditis elegans, UniProt Q95NM6 63-305, H148A).
T2 sequence: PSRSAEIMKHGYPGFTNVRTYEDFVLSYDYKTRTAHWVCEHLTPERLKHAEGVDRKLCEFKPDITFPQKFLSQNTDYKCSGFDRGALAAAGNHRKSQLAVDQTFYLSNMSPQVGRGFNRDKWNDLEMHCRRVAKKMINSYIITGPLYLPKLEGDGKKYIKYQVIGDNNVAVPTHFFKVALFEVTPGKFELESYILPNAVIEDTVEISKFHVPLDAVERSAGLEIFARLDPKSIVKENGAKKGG
The experiment in a line: filter binding.

Data set [3] deals with T3, CPS-6 H148A/K131D/F132N (Caenorhabditis elegans, UniProt Q95NM6 63-305, H148A;K131D;F132N).
T3 sequence: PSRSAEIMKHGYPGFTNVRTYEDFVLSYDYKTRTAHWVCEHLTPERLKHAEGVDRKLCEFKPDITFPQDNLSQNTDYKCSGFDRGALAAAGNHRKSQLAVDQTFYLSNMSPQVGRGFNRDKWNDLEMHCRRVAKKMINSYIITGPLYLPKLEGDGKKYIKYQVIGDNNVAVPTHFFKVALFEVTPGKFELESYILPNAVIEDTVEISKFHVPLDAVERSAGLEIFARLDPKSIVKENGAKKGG
The experiment in a line: filter binding.

Data set [4] deals with the molecule itself. The data set can be described thus: SEC.
Data set [5] concerns the target T4, CPS-6 H148A/F122A (Caenorhabditis elegans, UniProt Q95NM6 63-305, H148A;F122A).
T4 sequence: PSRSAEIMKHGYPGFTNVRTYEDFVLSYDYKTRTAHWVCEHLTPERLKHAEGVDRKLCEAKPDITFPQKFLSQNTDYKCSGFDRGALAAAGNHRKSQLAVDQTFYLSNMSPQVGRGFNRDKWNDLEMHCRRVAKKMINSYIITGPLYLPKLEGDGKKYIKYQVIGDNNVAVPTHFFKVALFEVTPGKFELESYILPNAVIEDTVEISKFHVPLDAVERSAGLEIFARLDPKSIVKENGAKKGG
The data set can be described thus: X-ray crystallography.

For the molecule ACGCTGCCGAATTCTGGCGTTAGGAGATACCGATAAGCTTCGGCTTAA (ssDNA) [48-nt ssDNA], the Kd turned out to be 804 nM in data set [1], 159 nM in data set [2] and 659 nM in data set [3].

B1: CPS-6 H148A (enzyme)
chain: PSRSAEIMKHGYPGFTNVRTYEDFVLSYDYKTRTAHWVCEHLTPERLKHAEGVDRKLCEFKPDITFPQKFLSQNTDYKCSGFDRGALAAAGNHRKSQLAVDQTFYLSNMSPQVGRGFNRDKWNDLEMHCRRVAKKMINSYIITGPLYLPKLEGDGKKYIKYQVIGDNNVAVPTHFFKVALFEVTPGKFELESYILPNAVIEDTVEISKFHVPLDAVERSAGLEIFARLDPKSIVKENGAKKGG
For the molecule B1, in data set [4], the “stoichiometry N” value is 2.

B2: CPS-6 H148A/F122A (enzyme)
chain: PSRSAEIMKHGYPGFTNVRTYEDFVLSYDYKTRTAHWVCEHLTPERLKHAEGVDRKLCEAKPDITFPQKFLSQNTDYKCSGFDRGALAAAGNHRKSQLAVDQTFYLSNMSPQVGRGFNRDKWNDLEMHCRRVAKKMINSYIITGPLYLPKLEGDGKKYIKYQVIGDNNVAVPTHFFKVALFEVTPGKFELESYILPNAVIEDTVEISKFHVPLDAVERSAGLEIFARLDPKSIVKENGAKKGG
Consider B2, for which, in data set [4], the “stoichiometry N” value turned out to be 2.
Regarding TTTTTTGT (ssDNA) [8-nt ssDNA (5'-TTTTTTGT-3')], the binding result in data set [5] is given as “binds”.

These data come from PMC5137453 (Nucleic Acids Research, 2016).
